Where no end group is shown, it is not given here.
B1: Phage-880 (peptide)
peptide: YCAGHLPEYLDKCL
modifications: cysteine pairing not given here; also: fused to phage pIII
notes: not shown: pIII filament protein of the bacteriophage to which the peptide is fused
B2: Phage-886 (peptide)
peptide: YCDGHLPEYFLKCL
modifications: cysteine pairing not given here; also: fused to phage pIII
notes: as for B1
B3: Phage-881 (peptide)
peptide: YCDGHSREYMVKCL
modifications: cysteine pairing not given here; also: fused to phage pIII
notes: as for B1
B4: Phage-884 (peptide)
peptide: YCDGHLQIYMHKCL
modifications: cysteine pairing not given here; also: fused to phage pIII
notes: as for B1
B5: Phage-885 (peptide)
peptide: YCAGHSMEYMAKCL
modifications: cysteine pairing not given here; also: fused to phage pIII
notes: as for B1
B6: Phage-910 (peptide)
peptide: YCEGHAQEYMNKCL
notes: Peptide-87 library clone, tested as clonal phage supernatant with the peptide fused to the pIII filament of the bacteriophage
B7: Phage-909 (peptide)
peptide: YCDGHAAEYMAKCV
notes: as for B6
B8: Phage-891 (peptide)
peptide: YCDGHSWEYMEKCL
modifications: cysteine pairing not given here; also: fused to phage pIII
notes: as for B1
B9: Phage-919 (Peptide-87 library clone, SEQ ID NO: 1235) (peptide)
peptide: YCDGHSREYMNKCL
modifications: cysteine pairing not given here; also: fused to phage pIII
notes: Tested as clonal phage supernatant; not shown: fused to the pIII filament protein of the bacteriophage
B10: Phage-917 (peptide)
peptide: YCDGHSPEYIGKCL
notes: as for B6
B11: Phage-916 (peptide)
peptide: YCEGHLSQYMSKCL
notes: as for B6
B12: Phage-912 (peptide)
peptide: YCDGHSADYMAKCL
notes: as for B6
B13: Phage-914 (peptide)
peptide: YCEGHLPMYMIKCL
notes: as for B6
B14: Phage-882 (peptide)
peptide: YCDGHLVEYRGKCL
modifications: cysteine pairing not given here; also: fused to phage pIII
notes: as for B1
B15: Phage-918 (Peptide-87 library clone, SEQ ID NO: 1234) (peptide)
peptide: YCAGHLPEFMDKCL
modifications: cysteine pairing not given here; also: fused to phage pIII
notes: as for B9
B16: Phage-915 (peptide)
peptide: YCEGHLPQYMRPCL
notes: as for B6
B17: Phage-888 (peptide)
peptide: YCAGHTQEYMYKCL
modifications: cysteine pairing not given here; also: fused to phage pIII
notes: as for B1
B18: Phage-883 (peptide)
peptide: YCAGHSAEYMWKCL
modifications: cysteine pairing not given here; also: fused to phage pIII
notes: as for B1
B19: Phage-887 (peptide)
peptide: YCDGHSLAYIAKCL
modifications: cysteine pairing not given here; also: fused to phage pIII
notes: as for B1
B20: Phage-913 (peptide)
peptide: YCDGHIGLYLNKCL
notes: as for B6
B21: Phage-907 (peptide)
peptide: YCDGHAPQWMAKCL
notes: as for B6
B22: Phage-908 (peptide)
peptide: YCDGHSREYMSKCL
notes: as for B6
B23: Phage-890 (peptide)
peptide: YCEGHLPQYFMKCL
modifications: cysteine pairing not given here; also: fused to phage pIII
notes: as for B1
B24: Phage-889 (peptide)
peptide: YCEGHAQEYMSKCL
modifications: cysteine pairing not given here; also: fused to phage pIII
notes: as for B1
B25: Phage-905 (peptide)
peptide: YCDGHSWQYISKCL
notes: as for B6
B26: Phage-906 (peptide)
peptide: YCEGHAPQYMNKCL
notes: as for B6
B27: Phage-911 (peptide)
peptide: YCEGHAPQYMTKCL
notes: as for B6

Columns and labels:
[1] = target: T1, Anti-CD28 Fab (SEQ ID NOs: 696, 697); experiment: phage ELISA; biotinylated anti-CD28 Fab on neutravidin plate, bound phage detected with anti-M13-HRP
T1 construct: In the phage ELISA the Fab was biotinylated and captured on neutravidin coated plates
T1 sequence (VH, as listed by the source, chain 1 of 2): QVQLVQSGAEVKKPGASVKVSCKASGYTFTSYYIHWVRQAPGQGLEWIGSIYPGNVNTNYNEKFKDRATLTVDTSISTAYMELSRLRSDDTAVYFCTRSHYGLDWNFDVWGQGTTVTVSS
T1 sequence (VL, as listed by the source, chain 2 of 2): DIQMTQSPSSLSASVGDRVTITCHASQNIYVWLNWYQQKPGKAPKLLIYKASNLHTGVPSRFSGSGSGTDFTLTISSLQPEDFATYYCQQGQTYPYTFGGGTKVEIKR
Procedure: (§1) After panning, phage infected bacteria were plated out and colonies picked into 96 well blocks. Clonal phage was then amplified and separated from bacterial cells via centrifugation.
(§2) Clonal phage were harvested as crude supematants and screened via standard ELISAs. […] Prior to the addition of clonal phage, wells were incubated with blocking buffer and CD28 antigen or blocking buffer alone. Without washing or aspirating, clonal phage supematants were then added to the wells and incubated for a short time. Wells were then washed followed by detection of bound phage using a horse radish conjugated anti-M13 antibody. Clonal phage of interest were then sent for sequence analysis.

[2] = target: T1, Anti-CD28 Fab (SEQ ID NOs: 696, 697); experiment: phage ELISA on captured anti-CD28 Fab; competitor: CD28 antigen pre-incubated in the well
Procedure: as §1, §2

[3] = target: T2, Anti-CD28 Fab (SEQ ID NOs: 696, 697); experiment: phage ELISA; as above with CD28 antigen as competitor pre-incubated on the Fab coated wells
T2 construct: Biotinylated and captured on neutravidin coated plates in the phage ELISA
T2 sequence (VH, as listed by the source, chain 1 of 2): as the sequence (VH, as listed by the source, chain 1 of 2) above
T2 sequence (VL, as listed by the source, chain 2 of 2): as the sequence (VL, as listed by the source, chain 2 of 2) above
Procedure: as §1, §2

[4] = target: T2, Anti-CD28 Fab (SEQ ID NOs: 696, 697); experiment: phage ELISA; biotinylated anti-CD28 Fab on neutravidin plates, clonal phage supernatant, anti-M13 HRP detection
Procedure: as §1, §2

[5] = target: Anti-CD28 Fab (SEQ ID NOs: 696, 697); experiment: phage binding ELISA; biotinylated anti-CD28 Fab on neutravidin plate, clonal phage supernatant, anti-M13 HRP detection
Target sequence in this assay (VH, as listed by the source, chain 1 of 2): as the sequence (VH, as listed by the source, chain 1 of 2) above
Target sequence in this assay (VL, as listed by the source, chain 2 of 2): as the sequence (VL, as listed by the source, chain 2 of 2) above
Procedure: as §1, §2

[6] = target: Anti-CD28 Fab (SEQ ID NOs: 696, 697); experiment: phage binding ELISA on captured anti-CD28 Fab; competitor: CD28 antigen preincubated in the wells
Target sequence in this assay (VH, as listed by the source, chain 1 of 2): as the sequence (VH, as listed by the source, chain 1 of 2) above
Target sequence in this assay (VL, as listed by the source, chain 2 of 2): as the sequence (VL, as listed by the source, chain 2 of 2) above

[7] = target: T3, Anti-CD28 Fab (SEQ ID NOs: 696, 697); experiment: phage binding ELISA; biotinylated anti-CD28 Fab on neutravidin plate, clonal phage supernatant, anti-M13 HRP detection
T3 construct: In the phage ELISA the Fab was biotinylated and captured on neutravidin coated plates
T3 sequence (VH, as listed by the source, chain 1 of 2): as the sequence (VH, as listed by the source, chain 1 of 2) above
T3 sequence (VL, as listed by the source, chain 2 of 2): as the sequence (VL, as listed by the source, chain 2 of 2) above
Procedure: as §1, §2

[8] = target: T3, Anti-CD28 Fab (SEQ ID NOs: 696, 697); experiment: phage binding ELISA; Fab-coated wells pre-incubated with CD28 antigen as competitor, anti-M13 HRP detection;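 note: crude clonal phage supernatants from panned colonies added to wells after blocking buffer plus CD28 treatment, bound phage measured after a brief incubation and washing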

Binder	Anti-CD28 Fab signal (phage binding ELISA) [1]	Anti-CD28 Fab signal in the presence of CD28 [2]	Phage binding ELISA, Anti-CD28 Fab signal in the presence of CD28 [3]	Phage binding ELISA, Anti-CD28 Fab signal [4]	Anti-CD28 Fab signal (phage binding ELISA) [5]	Anti-CD28 Fab signal in the presence of CD28 (phage binding ELISA) [6]	other results
B1	1.71	0.07					
B2	1.71	0.11					
B3	1.71	0.06					
B4	1.71	0.1					
B5	1.71	0.07					
YCDGHAWEYMTKCL (Tested as clonal phage supernatant) [Phage-898 (Peptide-87 library clone, YCDGHAWEYMTKCL)]			0.35	1.69			
YCDGHSTEYMEKCL (Tested as clonal phage supernatant) [Phage-903 (Peptide-87 library clone, YCDGHSTEYMEKCL)]			0.08	1.68			
B6					1.67	0.06	
B7					1.67	0.07	
YCEGHKPEYMQKCL (Tested as clonal phage supernatant) [Phage-897 (Peptide-87 library clone, YCEGHKPEYMQKCL)]			0.06	1.69			
YCDGHSSLYMHKCL (Tested as clonal phage supernatant) [Phage-904 (Peptide-87 library clone, YCDGHSSLYMHKCL)]			0.07	1.67			
B8	1.7	0.12					
YCDGHAKEYMDKCL (Tested as clonal phage supernatant) [Phage-902 (Peptide-87 library clone, YCDGHAKEYMDKCL)]			0.08	1.68			
B9							Anti-CD28 Fab signal (phage binding ELISA) [7]: 1.66; Anti-CD28 Fab signal in the presence of CD28 (phage binding ELISA) [8]: 0.06
B10					1.66	0.07	
B11					1.66	0.07	
B12					1.67	0.07	
B13					1.66	0.09	
B14	1.71	0.07					
YCDGHLPVYLEKCL (Tested as clonal phage supernatant) [Phage-894 (Peptide-87 library clone, YCDGHLPVYLEKCL)]			0.06	1.69			

Binder	Anti-CD28 Fab signal (phage binding ELISA) [1]	Anti-CD28 Fab signal in the presence of CD28 [2]	Phage binding ELISA, Anti-CD28 Fab signal in the presence of CD28 [3]	Phage binding ELISA, Anti-CD28 Fab signal [4]	Anti-CD28 Fab signal (phage binding ELISA) [5]	Anti-CD28 Fab signal in the presence of CD28 (phage binding ELISA) [6]	other results
B15							Anti-CD28 Fab signal (phage binding ELISA) [7]: 1.66; Anti-CD28 Fab signal in the presence of CD28 (phage binding ELISA) [8]: 0.06
YCDGHAIEYMAKCL (Tested as clonal phage supernatant) [Phage-896 (Peptide-87 library clone, YCDGHAIEYMAKCL)]			0.08	1.69			
B16					1.66	0.08	
YCDGHSPAYIWKCL (Tested as clonal phage supernatant) [Phage-900 (Peptide-87 library clone, YCDGHSPAYIWKCL)]			0.08	1.68			
YCAGHLQEYMQKCL (Tested as clonal phage supernatant) [Phage-895 (Peptide-87 library clone, YCAGHLQEYMQKCL)]			0.07	1.69			
YCDGHSEQYMSKCL (Tested as clonal phage supernatant) [Phage-901 (Peptide-87 library clone, YCDGHSEQYMSKCL)]			0.07	1.68			
YCEGHSPWYMNKCL (Tested as clonal phage supernatant) [Phage-899 (Peptide-87 library clone, YCEGHSPWYMNKCL)]			0.06	1.68			
B17	1.7	0.05					
B18	1.71	0.11					
B19	1.7	0.06					
B20					1.66	0.06	
B21					1.67	0.1	
YCEGHSAEYMQKCL (Tested as clonal phage supernatant) [Phage-893 (Peptide-87 library clone, YCEGHSAEYMQKCL)]			0.29	1.7			
B22					1.67	0.1	
YCAGHSPLYMLKCL (Tested as clonal phage supernatant) [Phage-892 (Peptide-87 library clone, YCAGHSPLYMLKCL)]			0.1	1.7			
B23	1.7	0.07					
B24	1.7	0.08					
B25					1.67	0.05	
B26					1.67	0.08	
B27					1.67	0.08	

Source: patent publication US20260242478A1 (published 2026)
